Assay [1] deals with T1, human Transferrin Receptor (TFRC) (human, UniProt P02786 1-760).
T1 construct: whole, on cells; also called hTFRC; huTfR1
The assay can be described thus: binding of AAV to CHO or hCMEC cells expressing human TFRC, relative to AAV9.

Assay [2] concerns the target T2, marmoset TfR1 (marmoset, UniProt U3FHF5 1-760).
T2 construct: whole, on cells; also called marmoset TFRC; marTFRC
Briefly: qPCR of cell-bound vector genomes, CHO cells stably expressing TfR1, 4 C, 1 h.

In assay [3] the target is T3, mouse TfR1 (mouse, UniProt Q62351 1-763).
T3 construct: whole, on cells; also called mouse TFRC; mouse Tfrc
Described as above.

For assay [4], the target named is T4, macaque TfR1 (rhesus macaque, UniProt I0FKY7 1-760).
T4 construct: whole, on cells; also called macTfR1; rhesus macaque TFRC
The description is as above.

The target of assay [5] is T1, human Transferrin Receptor (TFRC). Briefly: legend of the 2-step in vivo transduction assay (human TFRC expressed in mouse brain endothelium).

T1 sequence (P02786 whole entry): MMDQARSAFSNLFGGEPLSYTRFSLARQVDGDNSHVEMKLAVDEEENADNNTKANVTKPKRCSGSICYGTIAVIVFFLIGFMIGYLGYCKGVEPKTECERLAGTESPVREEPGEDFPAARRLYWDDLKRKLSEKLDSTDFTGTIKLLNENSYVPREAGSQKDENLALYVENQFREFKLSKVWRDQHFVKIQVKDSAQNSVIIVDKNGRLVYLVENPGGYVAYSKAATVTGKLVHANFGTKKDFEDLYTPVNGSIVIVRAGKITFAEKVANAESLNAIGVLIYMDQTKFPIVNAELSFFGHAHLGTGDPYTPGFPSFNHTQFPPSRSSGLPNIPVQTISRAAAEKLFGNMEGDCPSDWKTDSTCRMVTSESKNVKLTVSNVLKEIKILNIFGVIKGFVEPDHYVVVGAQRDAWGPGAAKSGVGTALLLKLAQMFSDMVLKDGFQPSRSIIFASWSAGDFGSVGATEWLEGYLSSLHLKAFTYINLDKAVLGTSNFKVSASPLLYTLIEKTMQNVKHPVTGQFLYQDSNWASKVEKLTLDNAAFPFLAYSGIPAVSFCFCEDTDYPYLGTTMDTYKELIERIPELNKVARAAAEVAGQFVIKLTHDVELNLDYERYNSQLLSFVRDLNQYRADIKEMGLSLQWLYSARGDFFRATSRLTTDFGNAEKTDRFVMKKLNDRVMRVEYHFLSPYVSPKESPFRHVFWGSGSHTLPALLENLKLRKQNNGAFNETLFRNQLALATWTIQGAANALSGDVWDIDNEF
T3 sequence (Q62351 whole entry): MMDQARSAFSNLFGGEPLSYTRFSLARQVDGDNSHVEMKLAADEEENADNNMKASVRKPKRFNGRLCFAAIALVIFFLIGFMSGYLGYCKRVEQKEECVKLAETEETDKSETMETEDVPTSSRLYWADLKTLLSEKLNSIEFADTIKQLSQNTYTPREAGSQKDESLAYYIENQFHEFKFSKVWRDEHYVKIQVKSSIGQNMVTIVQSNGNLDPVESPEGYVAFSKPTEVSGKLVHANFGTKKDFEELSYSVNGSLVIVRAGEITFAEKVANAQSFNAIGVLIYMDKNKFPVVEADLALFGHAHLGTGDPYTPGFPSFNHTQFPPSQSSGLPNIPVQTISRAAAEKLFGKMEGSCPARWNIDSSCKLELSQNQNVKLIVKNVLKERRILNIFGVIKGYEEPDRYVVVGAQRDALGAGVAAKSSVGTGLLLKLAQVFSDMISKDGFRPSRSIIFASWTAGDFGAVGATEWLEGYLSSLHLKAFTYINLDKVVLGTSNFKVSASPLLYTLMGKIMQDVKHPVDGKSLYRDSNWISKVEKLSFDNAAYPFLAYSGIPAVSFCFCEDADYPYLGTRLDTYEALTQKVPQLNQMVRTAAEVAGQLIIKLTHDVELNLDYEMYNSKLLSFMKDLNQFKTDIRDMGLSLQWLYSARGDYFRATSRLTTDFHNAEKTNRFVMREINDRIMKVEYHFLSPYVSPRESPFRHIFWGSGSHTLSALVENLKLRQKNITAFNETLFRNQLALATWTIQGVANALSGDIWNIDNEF

B1: AAV-BI98 (other)
chain: MAADGYLPDWLEDNLSEGIREWWALKPGAPQPKANQQHQDNARGLVLPGYKYLGPGNGLDKGEPVNAADAAALEHDKAYDQQLKAGDNPYLKYNHADAEFQERLKEDTSFGGNLGRAVFQAKKRLLEPLGLVEEAAKTAPGKKRPVEQSPQEPDSSAGIGKSGAQPAKKRLNFGQTGDTESVPDPQPIGEPPAAPSGVGSLTMASGGGAPVADNNEGADGVGSSSGNWHCDSQWLGDRVITTSTRTWALPTYNNHLYKQISNSTSGGSSNDNAYFGYSTPWGYFDFNRFHCHFSPRDWQRLINNNWGFRPKRLNFKLFNIQVKEVTDNNGVKTIANNLTSTVQVFTDSDYQLPYVLGSAHEGCLPPFPADVFMIPQYGYLTLNDGSQAVGRSSFYCLEYFPSQMLRTGNNFQFSYEFENVPFHSSYAHSQSLDRLMNPLIDQYLYYLSRTINGSGQNQQTLKFSVAGPSNMAVQGRNYIPGPSYRQQRVSTTVTQNNNSEFAWPGASSWALNGRNSLMNPGPAMASHKEGEDRFFPLSGSLIFGKQGTGRDNVDADKVMITNEEEIKTTNPVATESYGQVATNHQSAQYSRLNMNAQAQTGWVQNQGILPGMVWQDRDVYLQGPIWAKIPHTDGNFHPSPLMGGFGMKHPPPQILIKNTPVPADPPTAFNKDKLNSFITQYSTGQVSVEIEWELQKENSKRWNPEIQYTSNYYKSNNVEFAVNTEGVYSEPRPIGTRYLTRNL
notes: Engineered AAV capsid tested as assembled virus particles; entry is full VP1; also called AAV-B198
Consider B1, for which the binding result in assay [1] is “binds”; in assay [2], “no binding (tested: 3,000 vg/cell)”; in assay [3], “no binding (tested: 3,000 vg/cell)”; in assay [4], “no binding (tested: 3,000 vg/cell)”.

B2: AAV-BI19 (other)
chain: MAADGYLPDWLEDNLSEGIREWWALKPGAPQPKANQQHQDNARGLVLPGYKYLGPGNGLDKGEPVNAADAAALEHDKAYDQQLKAGDNPYLKYNHADAEFQERLKEDTSFGGNLGRAVFQAKKRLLEPLGLVEEAAKTAPGKKRPVEQSPQEPDSSAGIGKSGAQPAKKRLNFGQTGDTESVPDPQPIGEPPAAPSGVGSLTMASGGGAPVADNNEGADGVGSSSGNWHCDSQWLGDRVITTSTRTWALPTYNNHLYKQISNSTSGGSSNDNAYFGYSTPWGYFDFNRFHCHFSPRDWQRLINNNWGFRPKRLNFKLFNIQVKEVTDNNGVKTIANNLTSTVQVFTDSDYQLPYVLGSAHEGCLPPFPADVFMIPQYGYLTLNDGSQAVGRSSFYCLEYFPSQMLRTGNNFQFSYEFENVPFHSSYAHSQSLDRLMNPLIDQYLYYLSRTINGSGQNQQTLKFSVAGPSNMAVQGRNYIPGPSYRQQRVSTTVTQNNNSEFAWPGASSWALNGRNSLMNPGPAMASHKEGEDRFFPLSGSLIFGKQGTGRDNVDADKVMITNEEEIKTTNPVATESYGQVATNHQSAQYSRIGPNAQAQTGWVQNQGILPGMVWQDRDVYLQGPIWAKIPHTDGNFHPSPLMGGFGMKHPPPQILIKNTPVPADPPTAFNKDKLNSFITQYSTGQVSVEIEWELQKENSKRWNPEIQYTSNYYKSNNVEFAVNTEGVYSEPRPIGTRYLTRNL
notes: Engineered AAV capsid, tested as assembled genome-packaging virus particles; VP2 and VP3 come from the same cap gene
Regarding B2, the binding result is listed as “no binding (tested: 3,000 vg/cell)” in assay [2], “no binding (tested: 3,000 vg/cell)” in assay [3], “no binding (tested: 3,000 vg/cell)” in assay [4] and “binds” in assay [5].

B3: AAV-BI101 (other)
chain: MAADGYLPDWLEDNLSEGIREWWALKPGAPQPKANQQHQDNARGLVLPGYKYLGPGNGLDKGEPVNAADAAALEHDKAYDQQLKAGDNPYLKYNHADAEFQERLKEDTSFGGNLGRAVFQAKKRLLEPLGLVEEAAKTAPGKKRPVEQSPQEPDSSAGIGKSGAQPAKKRLNFGQTGDTESVPDPQPIGEPPAAPSGVGSLTMASGGGAPVADNNEGADGVGSSSGNWHCDSQWLGDRVITTSTRTWALPTYNNHLYKQISNSTSGGSSNDNAYFGYSTPWGYFDFNRFHCHFSPRDWQRLINNNWGFRPKRLNFKLFNIQVKEVTDNNGVKTIANNLTSTVQVFTDSDYQLPYVLGSAHEGCLPPFPADVFMIPQYGYLTLNDGSQAVGRSSFYCLEYFPSQMLRTGNNFQFSYEFENVPFHSSYAHSQSLDRLMNPLIDQYLYYLSRTINGSGQNQQTLKFSVAGPSNMAVQGRNYIPGPSYRQQRVSTTVTQNNNSEFAWPGASSWALNGRNSLMNPGPAMASHKEGEDRFFPLSGSLIFGKQGTGRDNVDADKVMITNEEEIKTTNPVATESYGQVATNHQSAQYHRLSNNAQAQTGWVQNQGILPGMVWQDRDVYLQGPIWAKIPHTDGNFHPSPLMGGFGMKHPPPQILIKNTPVPADPPTAFNKDKLNSFITQYSTGQVSVEIEWELQKENSKRWNPEIQYTSNYYKSNNVEFAVNTEGVYSEPRPIGTRYLTRNL
notes: Engineered AAV capsid tested as assembled virus particles; entry is full VP1
For B3, the binding result is “binds” in assay [1], “no binding (tested: 3,000 vg/cell)” in assay [2], “no binding (tested: 3,000 vg/cell)” in assay [3] and “no binding (tested: 3,000 vg/cell)” in assay [4].

B4: AAV-BI100 (other)
chain: MAADGYLPDWLEDNLSEGIREWWALKPGAPQPKANQQHQDNARGLVLPGYKYLGPGNGLDKGEPVNAADAAALEHDKAYDQQLKAGDNPYLKYNHADAEFQERLKEDTSFGGNLGRAVFQAKKRLLEPLGLVEEAAKTAPGKKRPVEQSPQEPDSSAGIGKSGAQPAKKRLNFGQTGDTESVPDPQPIGEPPAAPSGVGSLTMASGGGAPVADNNEGADGVGSSSGNWHCDSQWLGDRVITTSTRTWALPTYNNHLYKQISNSTSGGSSNDNAYFGYSTPWGYFDFNRFHCHFSPRDWQRLINNNWGFRPKRLNFKLFNIQVKEVTDNNGVKTIANNLTSTVQVFTDSDYQLPYVLGSAHEGCLPPFPADVFMIPQYGYLTLNDGSQAVGRSSFYCLEYFPSQMLRTGNNFQFSYEFENVPFHSSYAHSQSLDRLMNPLIDQYLYYLSRTINGSGQNQQTLKFSVAGPSNMAVQGRNYIPGPSYRQQRVSTTVTQNNNSEFAWPGASSWALNGRNSLMNPGPAMASHKEGEDRFFPLSGSLIFGKQGTGRDNVDADKVMITNEEEIKTTNPVATESYGQVATNHQSAQVHRLQDKAQAQTGWVQNQGILPGMVWQDRDVYLQGPIWAKIPHTDGNFHPSPLMGGFGMKHPPPQILIKNTPVPADPPTAFNKDKLNSFITQYSTGQVSVEIEWELQKENSKRWNPEIQYTSNYYKSNNVEFAVNTEGVYSEPRPIGTRYLTRNL
notes: as for B3
Consider B4, for which, in assay [1], the binding result is on record as “binds”.

B5: AAV-BI99 (other)
chain: MAADGYLPDWLEDNLSEGIREWWALKPGAPQPKANQQHQDNARGLVLPGYKYLGPGNGLDKGEPVNAADAAALEHDKAYDQQLKAGDNPYLKYNHADAEFQERLKEDTSFGGNLGRAVFQAKKRLLEPLGLVEEAAKTAPGKKRPVEQSPQEPDSSAGIGKSGAQPAKKRLNFGQTGDTESVPDPQPIGEPPAAPSGVGSLTMASGGGAPVADNNEGADGVGSSSGNWHCDSQWLGDRVITTSTRTWALPTYNNHLYKQISNSTSGGSSNDNAYFGYSTPWGYFDFNRFHCHFSPRDWQRLINNNWGFRPKRLNFKLFNIQVKEVTDNNGVKTIANNLTSTVQVFTDSDYQLPYVLGSAHEGCLPPFPADVFMIPQYGYLTLNDGSQAVGRSSFYCLEYFPSQMLRTGNNFQFSYEFENVPFHSSYAHSQSLDRLMNPLIDQYLYYLSRTINGSGQNQQTLKFSVAGPSNMAVQGRNYIPGPSYRQQRVSTTVTQNNNSEFAWPGASSWALNGRNSLMNPGPAMASHKEGEDRFFPLSGSLIFGKQGTGRDNVDADKVMITNEEEIKTTNPVATESYGQVATNHQSAQYSRLNKDAQAQTGWVQNQGILPGMVWQDRDVYLQGPIWAKIPHTDGNFHPSPLMGGFGMKHPPPQILIKNTPVPADPPTAFNKDKLNSFITQYSTGQVSVEIEWELQKENSKRWNPEIQYTSNYYKSNNVEFAVNTEGVYSEPRPIGTRYLTRNL
notes: as for B3
As for B5, the binding result in assay [1] is recorded as “binds”; in assay [2] it was “no binding (tested: 3,000 vg/cell)”; in assay [3], “no binding (tested: 3,000 vg/cell)”; in assay [4] it was “no binding (tested: 3,000 vg/cell)”.

B6: AAV-BI102 (other)
chain: MAADGYLPDWLEDNLSEGIREWWALKPGAPQPKANQQHQDNARGLVLPGYKYLGPGNGLDKGEPVNAADAAALEHDKAYDQQLKAGDNPYLKYNHADAEFQERLKEDTSFGGNLGRAVFQAKKRLLEPLGLVEEAAKTAPGKKRPVEQSPQEPDSSAGIGKSGAQPAKKRLNFGQTGDTESVPDPQPIGEPPAAPSGVGSLTMASGGGAPVADNNEGADGVGSSSGNWHCDSQWLGDRVITTSTRTWALPTYNNHLYKQISNSTSGGSSNDNAYFGYSTPWGYFDFNRFHCHFSPRDWQRLINNNWGFRPKRLNFKLFNIQVKEVTDNNGVKTIANNLTSTVQVFTDSDYQLPYVLGSAHEGCLPPFPADVFMIPQYGYLTLNDGSQAVGRSSFYCLEYFPSQMLRTGNNFQFSYEFENVPFHSSYAHSQSLDRLMNPLIDQYLYYLSRTINGSGQNQQTLKFSVAGPSNMAVQGRNYIPGPSYRQQRVSTTVTQNNNSEFAWPGASSWALNGRNSLMNPGPAMASHKEGEDRFFPLSGSLIFGKQGTGRDNVDADKVMITNEEEIKTTNPVATESYGQVATNHQSAQLHALSHNAQAQTGWVQNQGILPGMVWQDRDVYLQGPIWAKIPHTDGNFHPSPLMGGFGMKHPPPQILIKNTPVPADPPTAFNKDKLNSFITQYSTGQVSVEIEWELQKENSKRWNPEIQYTSNYYKSNNVEFAVNTEGVYSEPRPIGTRYLTRNL
notes: as for B3
With B6, the binding result in assay [1] is recorded as “binds”.

These data come from patent US20250228976A1 (BROAD INSTITUTE, published 2025).
